In assay [1] the target is T1, human DLL4 (27-251)-Fc alanine substitution mutant at position 64 (histidine) (human, UniProt Q9NR61 27-251).
T1 construct: range 27-251; also called amino acid mutant at position 64; not shown: Fc protein
Description: Western blot of mutant DLL4 (27-251)-Fc, detected with HRP anti-human Fab. The procedure: The mutant expression media incubated for 4 days were centrifuged at 1000 rpm at room temperature for 10 minutes to remove the suspended material, and then filtered through a 0.45-μm syringe. For Western blotting analysis, the level of the protein in the mutant expression media were quantified using Octet® system (ForteBio) so that a uniform amount of the mutant would be loaded on SDS gel. Next, 20 μl of each of the mutant expression media was loaded on each of two Novex 4-12% Bis/Tris gels, and subjected to gel electrophoresis using MOPS buffer at 140 V for 50 minutes. As a control, a protein encoding a deletion fragment (amino acid residues 27 to 251) of the extracellular domain of wild-type DLL4 was used. After completion of the electrophoresis, the protein band was transferred to a polyvinylidene difluoride membrane. A total of two processes were performed.
(In general: Immunoblotting shows a protein as a band on a membrane.)

Assay [2] addresses T2, human VEGF (hVEGF, R&D Systems, cat: 293-VE) (human, UniProt P15692-4 27-191).
T2 construct: Bought protein; also called vascular endothelial growth factor
Description: ELISA on plate-coated hVEGF, HRP anti-Fab detection, absorbance at 450 nm; the value is column C (midpoint) of the printed 4-P fit; preparation labelled (GS pool) cell line; the Conc axis prints no unit, nM is taken from paragraph 139. The procedure: (§1) The binding affinities of the dual-targeting proteins for DLL4 and VEGF were assessed using an ELISA-based solution competition assay. Specifically, a 96-well plate (Nunc-Immuno Plate, NUNC, Rochester, N.Y.) was coated with 50 ng/ml of hVEGF (R&D Systems, cat: 293-VE) and 200 ng/ml of rhDLL4 (R&D Systems, cat: 1506-D4/CF) in an amount of 100 μl per well at 4° C. overnight, and non-specific binding sites were blocked with BSA (bovine serum albumin) for 2 hours. The antibody on the 96-well microtiter plate was diluted 1/5-fold from 128 nM and 64 nM, and 100 μl of each of the dilutions was added to each well of the plate coated with hDLL4 and hVEGF proteins. Then, the plate was incubated for 2 hours, and washed five times with 0.05% tween 20-containing PBS. In order to detect the plate-bound antibody, an HRP-conjugated anti-Fab antibody (Pierce, cat: 31414)) was diluted at a ratio of 1:40,000, transferred to the washed 96-well microtiter plate, and then allowed to react at 37° C. for 1 hour. After the reaction, color development was performed using a colorimetric substrate (3,3′,5,5′-tetramethylbenzidine; Sigma-Aldrich). The enzymatic reaction was stopped using 0.5 mol/l of sulfuric acid. The absorbance at 450 nm was measured using SpectraMax 190 (molecular device).

In assay [3] the target is T3, human DLL4 protein (R&D Systems, Cat: 1506-D4/CF), extracellular domain, residues 27 to 524, C-terminal … (human, UniProt Q9NR61 27-524).
T3 construct: range 27-524; Bought protein; also called rhDLL4; hDLL4
The assay is described as follows: SPR (Biacore T200), hDLL4 immobilised on CM5, antibody as analyte, bivalent binding model. The procedure:
(§2) Specifically, Biacore T200 was used in SPR analysis and HBS-EP (10 mM HEPES, pH7.4, 150 mM NaCl, 3 mM EDTA, […] surfactant P20) was used as a running buffer. Surface preparation was done by using a surface preparation target immobilization tool of a wizard program (condition: 25° C., 5 μl/min). Ligands (hVEGF and hDLL4) were diluted in 10 mM sodium acetate buffer (pH 4.5) to final concentrations of 5 μg/ml and 4 μg/ml, respectively, and then immobilized to the surface of CM5 chip by a target immobilization level for each test group. In the immobilization process, two flow cells were included as one set wherein the first and third flow cells were set as a blank, the second flow cell has hVEGF immobilized to the surface thereof, and the fourth flow cell was set as hDLL4 in the present experiment. The first and third flow cells acted as a reference to account for experimental variability due to nonspecific bindings and buffer effects, and in the analysis, subtracted RU values (Fc2−Fc1, and Fc4−Fc3) were used as experimental results. The Avastin-DLL4 BsAb dual-targeting antibody that binds to hVEGF and hDLL4 was diluted in a running buffer to a final molar concentration of 100 nM, serially diluted 1/2 times, and each of the 5 dilutions was analyzed. The sample to be analyzed was prepared to have high purity and high concentration, enough to be diluted more than 100 times at minimum, thereby minimizing buffer effect. All analysis was done by using a wizard program, screening duplicates for each sample and a regeneration step was included in between each analysis step, so that the standard of experiment remains constant.
(§3) The experimental results were analyzed by Biaevaluation software version 4.0. At this time, to determine the RU values (Fc2−Fc1 and Fc4−Fc3), the baseline was set to zero, the value measured at a buffer injection part (analyte, 0 nM) was subtracted from a whole sensorgram. Then, the resulting RU value was analyzed by a Bivalent binding model to determine a binding affinity. The factors to be analyzed include kₐ (M⁻¹s⁻¹), kd (s⁻¹), and KD (M).
Background: In SPR one partner is held on a chip, and binding of the other changes the refractive index at the surface.

For assay [4], the target named is T2, human VEGF (hVEGF, R&D Systems, cat: …). Description: SPR (Biacore T200), hVEGF immobilised on CM5, antibody as analyte, bivalent binding model. The procedure: as §2, §3
Assay [5] addresses T3, human DLL4 protein (R&D Systems, Cat: …). The assay is described as follows: ELISA on plate-coated rhDLL4, HRP anti-Fab detection, absorbance at 450 nm; the value is column C (midpoint) of the printed 4-P fit; preparation labelled Transient; the Conc axis prints no unit, nM is taken from paragraph 139. The procedure:
as §1

Assay [6] shares this target. Description: ELISA on plate-coated rhDLL4, HRP anti-Fab detection, absorbance at 450 nm; the value is column C (midpoint) of the printed 4-P fit; preparation labelled (GS pool) cell line; the Conc axis prints no unit, nM is taken from paragraph 139. The procedure:
as §1

For assay [7] the target is unchanged. Description: competition ELISA: antibody premixed with human DLL4-His (600 ng/ml), transferred to plate-coated hNotch-1-hFc, bound DLL4 detected with anti-His HRP. The procedure: The neutralization effect of the Avastin-DLL4 BsAb dual-targeting antibody was assessed using an ELISA-based solution competition assay. Specifically, each well of a 96-well microtiter plate (Nunc-Immuno Plate, NUNC, Rochester, N.Y.) was coated with 100 μl of 500 ng/ml of hNotch-1-hFc protein (R&D Systems) (diluted in PBS) at 4° C. overnight, and then treated with BSA for 2 hours to block non-specific binding sites.
The Avastin-DLL4 BsAb dual-targeting antibody (purified protein) on the 96-well microtiter plate was premixed with serial dilutions of antigen protein (human DLL4-His, 600 ng/ml) at an […] concentration ranging from 0 nM to 140 nM. The antigen/antibody mixture was incubated for 30 minutes, and then transferred to a microtiter plate precoated with the DLL4 receptor hNotch-1 protein (50 ng/well) in order to measure free […]. Then, the plate was incubated for 2 hours and washed five times with 0.05% tween 20-containing PBS. In order to detect the DLL4 antigen bound to the plate, an HRP-conjugated His […] antibody reagent (Roche applied science) was diluted at a ratio of 1:800, and the washed microtiter plate was treated with the diluted antibody reagent, and then allowed to react at 37° C. for 1 hour. […]

Assay [8] has as its target T2, human VEGF (hVEGF, R&D Systems, cat: …). Description: ELISA on plate-coated hVEGF, HRP anti-Fab detection, absorbance at 450 nm; the value is column C (midpoint) of the printed 4-P fit y = (A - D)/(1 + (x/C)^B) + D; preparation labelled Transient; the Conc axis prints no unit, nM is taken from paragraph 139 (dilutions from 128 nM and 64 nM). The procedure:
as §1
On the technique in general: An ELISA detects its analyte on a solid surface through an enzyme-linked reagent.

Experimental findings from patent US20160159929A1 (ABLBIO, published 2016) are described below.

T2 sequence (P15692 other isoform, or with tags, fused parts or gaps limits assumed): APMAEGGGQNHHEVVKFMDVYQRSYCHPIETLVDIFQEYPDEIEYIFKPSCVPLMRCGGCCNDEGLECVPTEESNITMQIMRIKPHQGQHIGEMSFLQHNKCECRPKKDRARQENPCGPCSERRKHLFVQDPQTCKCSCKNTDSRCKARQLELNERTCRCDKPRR
T3 sequence (Q9NR61 other isoform, or with tags, fused parts or gaps limits assumed): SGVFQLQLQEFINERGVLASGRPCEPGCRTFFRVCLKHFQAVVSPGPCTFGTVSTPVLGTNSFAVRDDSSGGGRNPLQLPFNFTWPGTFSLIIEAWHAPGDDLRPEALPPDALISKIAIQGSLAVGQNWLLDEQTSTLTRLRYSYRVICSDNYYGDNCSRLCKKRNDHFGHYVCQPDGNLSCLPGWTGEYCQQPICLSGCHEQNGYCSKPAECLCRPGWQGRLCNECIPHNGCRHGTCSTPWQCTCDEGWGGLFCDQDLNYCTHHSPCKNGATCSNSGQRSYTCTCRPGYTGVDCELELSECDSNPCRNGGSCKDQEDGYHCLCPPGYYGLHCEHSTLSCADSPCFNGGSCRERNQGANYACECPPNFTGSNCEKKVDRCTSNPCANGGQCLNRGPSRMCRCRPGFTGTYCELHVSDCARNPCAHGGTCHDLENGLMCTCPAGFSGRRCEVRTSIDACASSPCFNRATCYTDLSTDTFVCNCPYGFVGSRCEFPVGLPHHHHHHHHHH
T1 sequence (Q9NR61 other isoform, or with tags, fused parts or gaps mutant limits assumed): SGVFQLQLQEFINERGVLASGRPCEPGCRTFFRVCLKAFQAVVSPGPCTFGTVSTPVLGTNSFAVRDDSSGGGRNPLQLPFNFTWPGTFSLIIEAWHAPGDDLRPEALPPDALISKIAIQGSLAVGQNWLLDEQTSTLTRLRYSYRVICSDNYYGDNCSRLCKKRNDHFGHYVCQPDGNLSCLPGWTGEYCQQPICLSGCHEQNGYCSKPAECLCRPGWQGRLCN

B1: MLCK-2 anti-DLL4 antibody (antibody, V domains shown)
VH: EVQLLESGGGLVQPGGSLRLSCAASGFTFSDYAMSWVRQAPGKCLEWVSWIYSGSGNKYYADSVKGRFTISRDNSKNTLYLQMNSLRAEDTAVYYCARADWPFDYWGQGTLVTVSS
VL: QSVLTQPPSASGTPGQRVTISCTGSSSNIGSNDVTWYQQLPGTAPKLLIYADSKRPSGVPDRFSGSKSGTSASLAISGLRSEDEADYYCGTWDYSLSAYVFGCGTKLTVL
notes: also called MLCK2 antibody
Take B1: the binding result in assay [1] was “no binding (tested: 1 µg/mL)”.

B2: Avastin-DLL4 BsAb dual-targeting antibody (bispecific antibody)
heavy: EVQLVESGGGLVQPGGSLRLSCAASGYTFTNYGMNWVRQAPGKGLEWVGWINTYTGEPTYAADFKRRFTFSLDTSKSTAYLQMNSLRAEDTAVYYCAKYPHYYGSSHWYFDVWGQGTLVTVSSASTKGPSVFPLAPSSKSTSGGTAALGCLVKDVFPEPVTVSWNSGALTSGVHTFPAVLQSSGLYSLSSVVTVPSSSLGTQTYICNVNHKPSNTKVDKKVEPKSCDKTHTCPPCPAPELLGGPSYFLFPPKPKDTLMISRTPEVTCVVVDVSHEDPEVKFNWYVDGVEVHNAKTKPREEQYNSTYRVVSVLTVLHQDWLNGKEYKCKVSNKALPAPIEKTISKAKGQPREPQVYTLPPSRHMTKNQVSLTCLVKGFYPSDIAVEWESNGQPENNYKTTPPVLDSDGSFFLYSKLTVDKSRWQQGNVFSCSVMHEALHNHYTQKSLSLSPGKGGGGSGGGGSGGGGSQSVLTQPPSASGTPGQRVTISCTGSSSNIGSNDVTWYQQLPGTAPKLLIYADSKRPSGVPDRFSGSKSGTSASLAISGLRSEDEADYYCGTWDYSLSAYVFGCGTKLTVLGGGGSGGGGSGGGGSGGGGSEVQLLESGGGLVQPGGSLRLSCAASGFTFSDYAMSWVRQAPGKCLEWVSWIYSGSGNKYYADSVKGRFTISRDNSKNTLYLQMNSLRAEDTAVYYCARADWPFDYWGQGTLVTVSS
light: not shown
notes: made in CHO cells; also called VEGF-DLL4 BsAb; dual-targeting protein
Regarding B2, the concentration giving a half-maximal response (EC50) (commonly the concentration at which the effect is half-maximal) amounted to 0.43 nM in assay [2], 0.264 nM in assay [5], 0.261 nM in assay [6] and 0.337 nM in assay [8]. Also, the Kd is 30.2 nM in assay [3] and 0.126 nM in assay [4]. For the same molecule, the koff (as a rule, the rate constant with which the complex falls apart) turned out to be 0.000587 s⁻¹ in assay [3] and 1.68e-06 s⁻¹ in assay [4]. In addition, the kon (commonly a measure of how fast the partners come together) in assay [3] came out at 19400 M⁻¹ s⁻¹; in assay [4], 13400 M⁻¹ s⁻¹. The IC50 – broadly, the concentration that inhibits the measured activity by half – in assay [7] worked out at 1.12 nM.
